Lowest concentration detected in ELISA data for one substance are collected here from patent US20150276766A1.

This assay has as its target T1, recombinant GDF11 (UniProt O95390).
T1 sequence (looked up): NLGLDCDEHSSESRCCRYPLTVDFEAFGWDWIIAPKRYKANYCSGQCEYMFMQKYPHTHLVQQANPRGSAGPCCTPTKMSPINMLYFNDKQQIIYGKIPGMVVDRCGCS
The experiment in a line: sandwich ELISA, plates coated with mActRIIA-Fc, detected with anti-GDF8/11 antibodies. A general note: ELISA stands for enzyme-linked immunosorbent assay.

As to “mActRIIA-Fc (extracellular domain of murine ActRIIA fused to a murine Fc domain; the murine counterpart of SEQ ID NO:7) (from UniProt P27038 21-135) (Fc fusion)”, the lowest concentration detected in ELISA came to 100 pg/mL.
